Laboratory results taken from patent publication US20250388665A1 (ADAFRE BIOSCIENCES, published 2025).
Residue numbers refer to the chain shown, from its start.

T1: murine TNFα (murine, UniProt P06804 80-235, limits assumed, biotinylated (sites not given))
T1 construct: Bought reagent; also called biotinylated murine TNFα
T1 sequence (looked up): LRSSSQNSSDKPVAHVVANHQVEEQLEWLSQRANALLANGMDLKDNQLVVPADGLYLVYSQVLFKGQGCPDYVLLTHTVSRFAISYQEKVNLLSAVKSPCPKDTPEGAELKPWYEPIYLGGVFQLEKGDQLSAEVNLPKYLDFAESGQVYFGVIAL

B1: A1 VH2 (Fab, V domains shown)
VH: EVQLVESGGGLVQPGRSLRLSCAASGFTFDQYAMHWVRQAPGKGLEWVSAITWNSGHIDYADSVEGRFTISRDNAKNSLYLQMNSLRAEDTAVYYCAKVSYLPTAHHLDYWGQGTLVTVSS
VL: not shown
notes: Fab: VH/VL joined to human kappa constant domain and human G1 CH1
B2: A1 VH3 (Fab, V domains shown)
VH: B1 VH with S100H, L102H, H106S, H107S
VL: not shown
notes: as for B1
B3: A1 VL7 (Fab, V domains shown)
VH: not shown
VL: DIQMTQSPSSLSASVGDRVTITCRASQEIRNHLAWYQQKPGKAPKLLIYAASTLQSGVPSRFSGSGSGTDFTLTISSLQPEDVATYYCQRYNHAPYTFGQGTKVEIK
notes: as for B1
B4: AF-M2637 Fab (Fab, V domains shown)
VH: not shown
VL: B3 VL with E28G, H32Y, Q89H, R90H, N92H, H93R
notes: pH switch variant of Ab1; Fab: VH/VL joined to human kappa constant domain and human G1 CH1; also called control AF-M2637
B5: Ab4 Fab (Fab, V domains shown)
VH: EVQLVESGGGLVQPGGSLRLSCAASGYVFTDYGMNWVRQAPGKGLEWMGWINTYIGEPIYADSVKGRFTFSLDTSKSTAYLQMNSLRAEDTAVYYCARGYRSYAMDYWGQGTLVTVSS
VL: DIQMTQSPSSLSASVGDRVTITCKASQNVGTNVAWYQQKPGKAPKALIYSASFLYSGVPYRFSGSGSGTDFTLTISSLQPEDFATYYCQQYNIYPLTFGQGTKVEIK
notes: as for B1
B6: A1 VL2 (Fab, V domains shown)
VH: not shown
VL: B3 VL with H32Y, R90H, N92H, H93R
notes: as for B1
B7: A1 VL3 (Fab, V domains shown)
VH: not shown
VL: B3 VL with H32Y, R90H, N92H, H93R, T97H
notes: as for B1
B8: A1 VL4 (Fab, V domains shown)
VH: not shown
VL: B3 VL with H32Y, Q89H, R90H, N92H, H93R
notes: as for B1

How the values were obtained:
human TNFα [1] = molecular target: T2, human TNFα (human, UniProt P01375 77-233, biotinylated in the Example 2 assay (sites not given)); experiment: ELISA: Fab titrated on immobilized human TNFα, 2 h dissociation at pH 7.4 with 100 nM soluble TNFα, A450
T2 construct: also called biotinylated human TNFα; soluble TNFα
T2 sequence (P01375 77-233 limits assumed): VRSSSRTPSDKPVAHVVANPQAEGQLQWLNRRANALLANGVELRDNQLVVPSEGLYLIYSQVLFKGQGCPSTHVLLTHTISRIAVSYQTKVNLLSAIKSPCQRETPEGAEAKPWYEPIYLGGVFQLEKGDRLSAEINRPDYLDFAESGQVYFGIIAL
Method: (§1) A 96-well Costar-3366 plate was coated with 50 μL/well of 1 μg/mL human TNFα (Genscript cat. #Z01001) in PBS for one hour at room temperature. The plate was rinsed twice with PBS-T and blocked with 100 μL/well of 1% BSA in PBS (B-PBS) for 1 h at 25° C. Fab samples were serially diluted 3-fold starting at 40 nM in B-PBS and were incubated for 1 h at 25° C. (50 μL/well). The plate was washed four times with PBS-T and 50 µL/well of 100 nM human TNFα in 1% BSA was added for 2 h at 25° C. The plate was washed four times with PBS-T and 50 μL/well of anti-human kappa, HRP conjugate (Southern Biotech, Prod. #2060-05) diluted 5,000-fold in B-PBS was added for 1 h at 25° C. The plate was washed three times with PBS-T, then developed with 50 μL/well 1-Step Ultra TMB-ELISA (ThermoFisher Scientific, Prod. #34028). The reaction was terminated by the addition of 2 N H₂SO₄ and the A450 was determined before and after addition of H₂SO₄, respectively, using a Spectramax plate reader.
(§2) The ELISA method used to characterize these variants was described in Example 3.

human TNFα [2] = molecular target: T2, human TNFα; experiment: as above; remark: listed apart in the source
Method: as §1

murine TNFα = molecular target: T1, murine TNFα; experiment: ELISA: Fab captured via anti-human Fd, biotinylated murine TNFα titrated (x axis), prolonged dissociation at pH 7.4, A450
Method: A 96-well Costar-3366 plate was coated with 50 μL/well of 2 μg/mL sheep anti-human Fd (Southern Biotech, Prod. #2046-01) in PBS for 1 hour at room temperature. The plate was washed four times with PBS containing 0.05% Tween 20 (PBS-T) and blocked with 100 μL/well of 1% BSA-PBS for 1 hour at room temperature. Block was removed and 50 μL/well of 0.5 ug/mL sample was added. Sample dilutions were performed with 1% BSA-PBS. The plate was washed four times with PBS containing 0.05% Tween 20 (PBS-T), then biotinylated murine (Acro biosystems) TNFα was serially diluted 3-fold starting at 30 nM in B-PBS and incubated for 1 h at 25° C. (50 μL/well). The plates were washed in 500 mL of PBS-T, pH 6.0 or PBS-T, pH 7.4 for 1 hour. PBS-T was removed from the plates every 10 minutes during this wash. The plates were then washed four times with PBS-T, and incubated with 50 μL/well of Neutravidin HRP (ThermoFisher Scientific, cat. #31030), diluted 2,000-fold in B-PBS for 1 h at 25° C. The plate was washed four times with PBS-T, then developed with 50 μL/well 1-Step Ultra TMB-ELISA (ThermoFisher Scientific, Prod. #34028). The reaction was terminated by the addition of 2 N H₂SO₄ and the A450 was determined before and after addition of H₂SO₄, respectively, using a Spectramax plate reader.

human TNFα [3] = molecular target: T2, human TNFα; experiment: ELISA: Fab titrated on immobilized human TNFα, 2 h dissociation at pH 7.4 with 100 nM soluble TNFα, A450 [cont.) C]
Method: as §1, §2

human TNFα [4] = molecular target: T2, human TNFα; experiment: ELISA: Fab titrated on immobilized human TNFα, 2 h dissociation at pH 6.0 with 100 nM soluble TNFα, A450
Method: as §1, §2

Row | Binder | binding result (murine TNFα) | EC50 (read off the curve) (human TNFα [1]) | EC50 (read off the curve) (human TNFα [4]) | also measured
1 | B1 | – | – | – | binding result (human TNFα [1]): binds
2 | B2 | binds | ~0.7 nM | – | EC50 (read off the curve) (human TNFα [2]): ~2 nM
3 | B3 | binds | – | – | EC50 (read off the curve) (human TNFα [3]): ~1 nM
4 | B4 | no binding (tested: log -7.5 M b-muTNF) | ~3 nM | – | –
5 | B5 | no binding (tested: log -7.5 M b-muTNF) | – | – | –
6 | B6 | – | ~0.4 nM | ~0.7 nM | –
7 | B7 | – | – | ~0.9 nM | –
8 | B8 | – | – | ~1 nM | –
